The assay concerns human APP. Kind of assay: Western blot of APP shedding in U2OS cells transfected with human APP. The following applies: 31 nM to 1 μM. Type of assay: cell-based. The protocol:
U2OS cells transiently transfected with human APP releases the extracellular portion of APP to the media.
The release of sAPPα in the presence of varying concentrations of IHigG/Fab (31 nM to 1 μM) was evaluated using Western blotting. The Western blots were quantitated using the software Image J and glyceraldehyde 3-phosphate dehydrogenase (GAPDH) as loading control. A vector control was included and U20S cells transfected with APP, but untreated, was used to calculate the fold increase in shedding.
For orientation: A western blot detects proteins with antibodies after separation by electrophoresis.

B1: 1H5 Fab: Fab fragment of fully human anti-ADAM10 antibody 1H5 (antibody)
heavy: QVQLVESGGGLVKPGGSLRLSCAASGFTFSDYYMSWIRQAPGKGLEWVSYISSSGSTIYYADSVKGRFTISRDNAKNSLYLQMNSLRAEDTAVYYCARDFYDSKIFDYWGQGTLVTVSSASTKGPSVFPLAPSSKSTSGGTAALGCLVKDYFPEPVTVSWNSGALTSGVHTFPAVLQSSGLYSLSSVVTVPSSSLGTQTYICNVNHKPSNTKVDKKVEPKSCDKT
light: DIQMTQSPSSLSASVGDRVTITCRASQSISSYLNWYQQKPGKAPKLLIYAASSLQSGVPSRFSGSGSGTDFTLTISSLQPEDVGVYYCMEGLKTPFTFGPGTKLEIKRTVAAPSVFIFPPSDEQLKSGTASVVCLLNNFYPREAKVQWKVDNALQSGNSQESVTEQDSKDSTYSLSSTLTLSKADYEKHKVYACEVTHQGLSSPVTKSFNRGEC
Consider B1, for which the sAPPα shedding result is listed as “increase”.
